Patent US20230203156A1 (published 2023)

T1: cynomolgus CD47 (cynomolgus, UniProt A0A5F8AK49 19-323)
T1 chain: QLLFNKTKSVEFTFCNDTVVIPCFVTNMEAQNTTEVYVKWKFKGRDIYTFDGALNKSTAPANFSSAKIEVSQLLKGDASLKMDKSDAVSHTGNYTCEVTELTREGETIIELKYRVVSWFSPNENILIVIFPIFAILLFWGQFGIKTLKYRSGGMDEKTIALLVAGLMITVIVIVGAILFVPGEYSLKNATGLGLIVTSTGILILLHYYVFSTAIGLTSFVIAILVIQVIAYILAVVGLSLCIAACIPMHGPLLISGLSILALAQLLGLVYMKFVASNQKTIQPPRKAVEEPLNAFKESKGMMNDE


The binders below were run against human CD47 (human, UniProt Q08722 19-323) (assay: cell binding (flow cytometry, C6 cells)).

EC50 [nM]	Binder
2.7	KT14.5F9hu scFv-B1.261.hu1 (bispecific antibody) scFv: not shown heavy: EVQLQESGPGLVKPSETLSLTCTVSGFSLTSYGVHWVRQPPGKGLEWLVVIWSDGSTTYNSALKSRLTISKDNSKNQVSLKLSSVTAADTAVYYCARHGRWLLQRGGAMDYWGQGTMVTVSSASTKGPSVFPLAPSSKSTSGGTAALGCLVKDYFPEPVTVSWNSGALTSGVHTFPAVLQSSGLYSLSSVVTVPSSSLGTQTYICNVNHKPSNTKVDKRVEPKSCDKTHTCPPCPAPELLGGPSVFLFPPKPKDTLMISRTPEVTCVVVDVSHEDPEVKFNWYVDGVEVHNAKTKPREEQYNSTYRVVSVLTVLHQDWLNGKEYKCKVSNKALPAPIEKTISKAKGQPREPQVCTLPPSREEMTKNQVSLSCAVKGFYPSDIAVEWESNGQPENNYKTTPPVLDSDGSFFLVSKLTVDKSRWQQGNVFSCSVMHEALHNHYTQKSLSLSPGK light: DVQMTQSPSSLSASVGDRVTITCRASQNVGSYIAWYQQKPGKSPKALIYSASYRSSGVPSRFSGSGAGTDFTLTISSLQPEDFATYFCQQYNSYPLTFGGGTKLEIKRTVAAPSVFIFPPSDEQLKSGTASVVCLLNNFYPREAKVQWKVDNALQSGNSQESVTEQDSKDSTYSLSSTLTLSKADYEKHKVYACEVTHQGLSSPVTKSFNRGEC

What follows are binders tested against human MDR1 (multidrug resistance protein 1) (UniProt P08183 1-1280) (assay: FACS binding, 293T cells expressing human MDR1).

Binder	EC50 [nM]
B1.188 (antibody, V domains shown) VH: EVMLVESGGALVKPGGSLKLSCAASGFTFSNYAMSWVRQTPEKRLEWVATISSGGSYTYYPDSVKGRFTISRDNARNTLYLQMSSLRSEDTAMYYCARGYGNFAWFAYWGQGTLVTVSA VL: DIQMTQSPLSLPVSLGDQASISCRSSQSIVHSTGNTYLEWYLQKPGQSPKLLIYKVSNRFSGVPDRFSGSGSGTDFTLKISRVEAEDLGVYYCFQGSHVPFTFGSGTKLEIK	14.1
B1.39 (antibody, V domains shown) VH: EVMLVESGGGLVKPGGSLKLSCAASGFTFSSYTMSWVRQTPEKRLEWVATVSSGGGNTYYPDSVKGRFTISRDNAKNNLYLQMSSLRSEDTALYYCARYGNYGWFTYWGQGTLVTVSA VL: DVLMTQTPLSLPVSLGDQASISCRSSQSILHSNGNTYLEWYLQKPGQSPKLLIYKVSNRFSGVPDRFSASGSGTDFTLKISRVEAEDLGIYYCFQGSHVPRTFGGGTKLEIK	14.2
B1.99 (antibody, V domains shown) VH: EVQLVESGGALVKPGGSLKLSCAASGFTFSNYAMSWVRQTPERRLEWVATISSGGSYTYYPDSVKGRFTISRDNAKNTLYLQMSSLISEDTALYYCTRGYGNFAWFAYWGHGTLVTVSA VL: DVVMTQTPLSLPVSLGDQVSISCRSSQSIVHSYGSTYLEWYLQKPGQSPKLLIYKVSNRFSGVPDRFSGSGSGTDFTLKISRVEAEDLGVYFCFQGSHIPYTFGGGTKLELK	88.2
B1.30 (antibody, V domains shown) VH: EVMLVESGGGLVKPGGSLKLSCAASGFTFSSYTMSWVRQTPEKRLEWVATISSGGGNTYYPDSVKGRFTISRDNAKNNLYLQMSSLRSEDTALYYCARYYRYDAWFAYWGQGTLVTVSA VL: DVLMTQTPLSLPVSLGDQASISCRSSQSIVHSTGNTYLEWYLQKPGQSPKLLIYKVSNRFSGVPDRFSGSGSGTDFTLKISRVETEDLGVYYCFQGSHVPRTFGGGTKLEIK	8.5
B1.85 (antibody, V domains shown) VH: EVQLVESGGALVKPGGSLKLSCAASGFTFSNYGVSWVRQTPEKRLEWVATISSSGSYTYYPDIVRGRFTISRDNAKNTLYLQMSSLRSEDTAFYYCARGYGNFAWFAYWGQGTLVTVSA VL: DIQMTQSPLSLPVSLGDQASISCRSSQSIVHSTGNTYLEWYLQKPGQSPKLLIYKVSNRFSGVPDRFSGSGSGTDFTLKINRVEAEDLGVYYCFQGSHVPYTFGGGTKLEIK	9.2
B1.27 (antibody, V domains shown) VH: EVKLVESGGGLVKPGGSLKLSCAASGFTFSSYTMSWVRQTPEKRLEWVATVSSGGGNTYYPDSVKGRFTISRDNAKNNLYLQMSSPRSEDTALYYCARYGNYGWFTYWGQGTLVTVSS VL: DVVMTQTPLSLPVSLGDQASISCRSSQNIVHSTGNTYLDWYLQKPGQSPKLLIYKVSNRFSGVPDRFSGSGSGTDFTLKISRVEAEDLGVYFCFQGSHIPRTFGGGTKLEIK	34
B1.178 (antibody, V domains shown) VH: EAQLVESGGALVKPGGSLKLSCSASGFTFSNYAMSWVRQTPEKRLEWVATISSGGTNTYYPGSVKGRFTIARDNAKNTLYLLMSSLRSEDTALYFCARYSNLAWFASWGQGTLVTVSA VL: DVVMTQTPLSLPVSLGDQASISCRSSQSIVHSNGNTYLEWYLQKPGQSPKFLISKVSNRFSGVPDRFSGSGSGTDFTLKISRVEAEDLGIYYCFQGSHVPYTFGGGTKLEIK	16.6

Continued, values first:

EC50 [nM]	Binder
8	B1.201 (antibody, V domains shown) VH: EVQLVESGGALMKPGGSLKFSCAASGFTFTNYAMSWVRQTPEKRLEWVATISSGGSNTYYSDSVKGRFTISRDNAKTTLYLQMSGLRSEDTALYYCAKFSNFGRFASWGQGTLVTVSA VL: DVLMTQTPLSLPVSLGDQASISCRFSQSIVHSSGNTYLEWYLQKPGQSPRLLIYKVSNRFFGVPDRISGSGSGTDFTLRISRVEAEDLGVYYCFQGSHVPYTFGGGTKLEIK
14.8	B1.198 (antibody, V domains shown) VH: EVQLVESGGALVKPGGSLKLSCAASGFTFSNYAMSWVRQTPEKRLEWVATISSGGSYTYYPDSVKGRFTISRDNAKNTLYLQMSSLRSEDTALYYCAKYSNYGRFAYWGQGTLVTVSA VL: DVVMTQTPLSLPVSLGDQASISCRSSQSIVDSNGNTYLEWYLQKPGQSPKLLIYKVSNRFFGVPDRFSGSGSGTDFTLKISRVEAEDLGVYYCFQGSHVPYTFGGGTKLEIK
4.6	B1.223 (antibody, V domains shown) VH: EVKLVESGGALVKPGGSLKLSCAASGFTFSNYAMSWVRQTPEKRLEWVATISSGGSYTYYPDSVKGRFTISRDNAKTTLYLQMSGLRSEDTALYYCAKFSNYGRFASWGQGTLVTVSS VL: DIQMIQSPLSLPVSLGDQASISCRSSQSIVHSSGNTYLEWYLQKPGQSPRLLIYKVSNRFFGVPDRISGSGSGTDFTLRISRVEAEDLGVYYCFQGSHVPYTFGGGTKLELK
4.3	B1.207 (antibody, V domains shown) VH: GVQLVESGGALVKPGGSLKLSCAASGFTFSNYAMSWVRQTPEKRLEWVATISSGGSYTYYPDSVKGRFTISRDNAKTTLYLQMSGLRSEDTALYYCAKYSNYGRFASWGQGTLVTVST VL: DVLMTQTPLSLPVSLGDQASISCRSSQSIVHSSGNTYLEWYLQKPGQSPRLLIYKVSNRFFGVPDRISGSGSGTDFTLRISRVEAEDLGVYYCFQGSHVPYTFGGGTKLEIK

Molecular target: T1, cynomolgus CD47
Test: FACS binding, C6-cKT14 cells

EC50 [nM]	Binder
21	15D3DD KT14KK B1.89v1 LC (bispecific antibody) heavy 1: not shown heavy 2: not shown VL: DVLMTQTPLSLPVSLGDQASISCRSSQTIVHSNGNTYLEWYLQKPGQSPKLLIYKVSKRFSGVPDRFSGSGSGTDFTLKISRVEAEDLGVYYCFQASHFPRTFGGGTKLEIK
36	15D3DD/KT14KK/B1.27 (antibody) chain 1: EVKVVESGGVLVRPGGSLKLSCAASGFTFSRYTMSWVRQTPEKRLEWVATISSGGGNTYYPDSVKGRFTVSRDNAMSSLYLQMSSLRSEDTALYYCARYGAGDAWFAYWGQGTLVTVSS chain 2: QVQLVQSGAEVKKPGASVKVSCKASGYTFTNYNMHWVRQAPGQRLEWMGTIYPGNDDTSYNQKFKDRVTITADTSASTAYMELSSLRSEDTAVYYCARGGYRAMDYWGQGTLVTVSS chain 3: DVLLTQTPLSLPVSLGDQASISCRSSQNIVHSTGNTYLDWYLQKPGQSPKLLIYKVSNRFSGVPDRFSGSGSGTDFTLKISRVEAEDLGVYFCFQGSHIPRTFGGGTKLEIK
37	15D3DD/KT14KK/225v1 (antibody) chain 1: EVKVVESGGVLVRPGGSLKLSCAASGFTFSRYTMSWVRQTPEKRLEWVATISSGGGNTYYPDSVKGRFTVSRDNAMSSLYLQMSSLRSEDTALYYCARYGAGDAWFAYWGQGTLVTVSS chain 2: QVQLVQSGAEVKKPGASVKVSCKASGYTFTNYNMHWVRQAPGQRLEWMGTIYPGNDDTSYNQKFKDRVTITADTSASTAYMELSSLRSEDTAVYYCARGGYRAMDYWGQGTLVTVSS chain 3: DVVMTQTPLSLPVSLGDQASISCRFSQSIVHSNGNTYLEWYLQKPGQSPKLLIYKVSNRFFGVPDRFSGSGSGTDFTLKISRVEAEDLGVYYCFQASHFPRTFGGGTKLEIK
44	15D3DD/KT14KK/VL6.CDR3mod (antibody) chain 1: EVKVVESGGVLVRPGGSLKLSCAASGFTFSRYTMSWVRQTPEKRLEWVATISSGGGNTYYPDSVKGRFTVSRDNAMSSLYLQMSSLRSEDTALYYCARYGAGDAWFAYWGQGTLVTVSS chain 2: QVQLVQSGAEVKKPGASVKVSCKASGYTFTNYNMHWVRQAPGQRLEWMGTIYPGNDDTSYNQKFKDRVTITADTSASTAYMELSSLRSEDTAVYYCARGGYRAMDYWGQGTLVTVSS chain 3: DVLMTQTPLSLPVSLGDQASISCRSSQSLVHSNGNTYLEWYLQKPGQSPKLLIYKVSNRFSGVPDRFSGSGSGTDFTLKISRVEAEDLGVYYCFQGSHFPRTFGGGTKLEIKRTVAAPSVFIF
